Experimental data taken from paper PMC7617869, “Molecular glues that inhibit deubiquitylase activity and inflammatory signaling” (Nature Structural & Molecular Biology, 2025).
“And” between values parts separate entries of the source, which are not always exact repeats. Equal values may be shown once.

Tests used:
Assay type in all cases: biochemical
BRISC BRCC45 R137A = BRISC BRCC45 R137A (Homo sapiens, UniProt P46736+Q15018+Q9NXR7, R137A); assay: BRISC mutant IQF assay: BRCC45 R137A
Method: (§1) IQF assays were performed in DUB reaction buffer containing 50 mM HEPES–NaOH pH 7.0, 100 mM NaCl, 0.1 mg ml^−1 BSA, 1 mM DTT and 0.03% v/v Brij-35. […] The final concentration of BRISC WT, all BRISC mutants, HsBRISCΔLoop, MmBRISC and DrBRISCΔNΔC was 1 nM. Other enzymes were tested at the following concentrations: 5 nM ARISC (FL), 10 nM CfBRISCΔNΔC, 250 nM AMSH* (ref. [43]), 500 nM USP2 and 1 μM trypsin (Sigma, 9002-07-7). For Michaelis–Menten experiments, 1 nM BRISC with 0–1 μM IQF K63-linked diubiquitin substrate was used. Michaelis–Menten analyses and Lineweaver–Burk plots were calculated using GraphPad Prism (version 9.0).
(§2) To assess enzymatic activity, BRISC complexes were diluted to concentrations between 1 nM and 50 nM. […] Then, 20-μl enzyme reactions were carried out in 384-well black flat-bottom low-flange plates (Corning, 35373). DUB activity was measured using IQF K63-linked diubiquitin (LifeSensors, DU6303) at 50 nM. Cleaved diubiquitin was monitored by measuring fluorescence intensity (excitation, 544 nm; emission, 575 nm; dichroic mirror, 560 nm). Fluorescence intensity was measured every minute for 30 min at 30 °C. Fluorescence intensity units were plotted against time to generate a linear reaction progress curve, where the initial velocity (V0) corresponds to the gradient of the curve (typically achieved within 15 min). IC50 values were calculated using the GraphPad Prism (version 9.0) built-in dose–response equation for inhibitor concentration versus response (variable slope).

BRISC BRCC45 F140A = BRISC BRCC45 F140A (Homo sapiens, UniProt P46736+Q15018+Q9NXR7, F140A); assay: BRISC mutant IQF assay: BRCC45 F140A
Method: as §1, §2

BRISC BRCC45 C245A = BRISC BRCC45 C245A (Homo sapiens, UniProt P46736+Q15018+Q9NXR7, C245A); assay: BRISC mutant IQF assay: BRCC45 C245A
Method: as §1, §2

BRISC BRCC45 D248R = BRISC BRCC45 D248R (Homo sapiens, UniProt P46736+Q15018+Q9NXR7, D248R); assay: BRISC mutant IQF assay: BRCC45 D248R
Method: as §1, §2

Normalised V0 (BRISC BRCC45 R137A; SHMT2 0.347222 nM): 0.9721 and 1.019 and 0.9944
Normalised V0 (BRISC BRCC45 R137A; SHMT2 1.04167 nM): 0.7112 and 0.6836 and 0.8504
Normalised V0 (BRISC BRCC45 R137A; SHMT2 3.125 nM): 0.4073 and 0.4138 and 0.6039
Normalised V0 (BRISC BRCC45 R137A; SHMT2 6.25 nM): 0.3218 and 0.2523 and 0.3959
Normalised V0 (BRISC BRCC45 R137A; SHMT2 12.5 nM): 0.1807 and 0.195 and 0.2065
Normalised V0 (BRISC BRCC45 R137A; SHMT2 25 nM): 0.1093 and 0.1844 and 0.1637
Normalised V0 (BRISC BRCC45 R137A; SHMT2 50 nM): 0.06765 and 0.12 and 0.1128
Normalised V0 (BRISC BRCC45 R137A; SHMT2 100 nM): 0.03288 and 0.04915 and 0.05253
SHMT2 inhibition of BRISC BRCC45 mutants (BRISC BRCC45 R137A; b47 speaks of all BRCC45 mutants): without affecting SHMT2 inhibition
Normalised V0 (BRISC BRCC45 F140A; SHMT2 0.00347222 nM): 0.9456 and 0.9686 and 0.8245
Normalised V0 (BRISC BRCC45 F140A; SHMT2 0.0347222 nM): 0.8694 and 1.026 and 0.8239
Normalised V0 (BRISC BRCC45 F140A; SHMT2 0.347222 nM): 0.9307 and 0.9114 and 0.8975
Normalised V0 (BRISC BRCC45 F140A; SHMT2 1.04167 nM): 0.8692 and 0.886 and 0.7736
Normalised V0 (BRISC BRCC45 F140A; SHMT2 3.125 nM): 0.8001 and 0.6891 and 0.7189
Normalised V0 (BRISC BRCC45 F140A; SHMT2 6.25 nM): 0.7321 and 0.6833 and 0.7086
Normalised V0 (BRISC BRCC45 F140A; SHMT2 12.5 nM): 0.4577 and 0.4521 and 0.5184
Normalised V0 (BRISC BRCC45 F140A; SHMT2 25 nM): 0.3014 and 0.3302 and 0.288
Normalised V0 (BRISC BRCC45 F140A; SHMT2 50 nM): 0.2533 and 0.2485 and 0.2535
Normalised V0 (BRISC BRCC45 F140A; SHMT2 100 nM): 0.2137 and 0.184 and 0.161
Normalised V0 (BRISC BRCC45 C245A; SHMT2 0.00347222 nM): 0.9588 and 1.144 and 1.038
Normalised V0 (BRISC BRCC45 C245A; SHMT2 0.0347222 nM): 0.8809 and 1.071 and 0.9852
Normalised V0 (BRISC BRCC45 C245A; SHMT2 0.347222 nM): 0.7622 and 1.011 and 1.053
Normalised V0 (BRISC BRCC45 C245A; SHMT2 1.04167 nM): 0.7409 and 0.9691 and 1.004
Normalised V0 (BRISC BRCC45 C245A; SHMT2 3.125 nM): 0.5581 and 0.7111 and 0.7493
Normalised V0 (BRISC BRCC45 C245A; SHMT2 6.25 nM): 0.4848 and 0.6695 and 0.6719
Normalised V0 (BRISC BRCC45 C245A; SHMT2 12.5 nM): 0.4215 and 0.5643 and 0.477
Normalised V0 (BRISC BRCC45 C245A; SHMT2 25 nM): 0.501 and 0.3965 and 0.329
Normalised V0 (BRISC BRCC45 C245A; SHMT2 50 nM): 0.391 and 0.3153 and 0.2153
Normalised V0 (BRISC BRCC45 C245A; SHMT2 100 nM): 0.3584 and 0.2521 and 0.1837
Normalised V0 (BRISC BRCC45 C245A; SHMT2 200 nM): 0.2257 and 0.1737 and 0.1153
Normalised V0 (BRISC BRCC45 D248R; SHMT2 0.00347222 nM): 0.9357 and 1.056 and 1.018
Normalised V0 (BRISC BRCC45 D248R; SHMT2 0.0347222 nM): 0.8867 and 1.018 and 0.9695
Normalised V0 (BRISC BRCC45 D248R; SHMT2 0.347222 nM): 0.882 and 0.7691 and 0.9453
Normalised V0 (BRISC BRCC45 D248R; SHMT2 1.04167 nM): 0.8534 and 1.006 and 0.8339
Normalised V0 (BRISC BRCC45 D248R; SHMT2 3.125 nM): 0.5795 and 0.5378 and 0.6917
Normalised V0 (BRISC BRCC45 D248R; SHMT2 6.25 nM): 0.5339 and 0.4364 and 0.5979
Normalised V0 (BRISC BRCC45 D248R; SHMT2 12.5 nM): 0.3281 and 0.3163 and 0.4228
Normalised V0 (BRISC BRCC45 D248R; SHMT2 25 nM): 0.3612 and 0.2677 and 0.38
Normalised V0 (BRISC BRCC45 D248R; SHMT2 200 nM): 0.05731 and 0.07178 and 0.09996
B1: SHMT2: serine hydroxymethyltransferase 2, metabolic enzyme and endogenous inhibitor of BRISC DUB activity (protein)
chain: QLVRMAIRAQHSNAAQTQTGEANRGWTGQESLSDSDPEMWELLQREKDRQCRGLELIASENFCSRAALEALGSCLNNKYSEGYPGKRYYGGAEVVDEIELLCQRRALEAFDLDPAQWGVNVQPYSGSPANLAVYTALLQPHDRIMGLDLPDGGHLTHGYMSDVKRISATSIFFESMPYKLNPKTGLIDYNQLALTARLFRPRLIIAGTSAYARLIDYARMREVCDEVKAHLLADMAHISGLVAAKVIPSPFKHADIVTTTTHKTLRGTRSGLIFYRKGVKAVDPKTGREIPYTFEDRINFAVFPSLQGGPHNHAIAAVAVALKQACTPMFREYSLQVLKNARAMADALLERGYSLVSGGTDNHLVLVDLRPKGLDGARAERVLELVSITANKNTCPGDRSAITPGGLRLGAPALTSRQFREDDFRRVVDFIDEGVNIGLEVKSKTAKLQDFKSFLLKDSETSQRLANLRQRVEQFARAFPMPGFDEH
